Assay results reported in paper PMC7110113, “Termination of non‐coding transcription in yeast relies on both an RNA Pol II CTD interaction domain and a CTD‐mimicking region in Sen1” (The EMBO Journal, 2020).
Where a chain is given by its changes, count along the chain named. In names and notes the source's numbering stands. Ends that are not written are not given here. FAM = 5,6-carboxyfluorescein

Columns and labels:
[1] = molecular target: Sen1 NIM peptide (Sen1 aa 2,052-2,063) (S. cerevisiae) (UniProt Q00416); assay: fluorescence polarisation; fluorescence anisotropy, equilibrium binding of Nrd1 CID variants to FAM-labelled NIM peptides; 10°C, 50 mM Na2HPO4, 100 mM NaCl, pH 8; 1:1 model with non-specific binding (DynaFit)
[2] = molecular target: Trf4 NIM peptide (S. cerevisiae); assay: as above
Nrd1 CID [3] = molecular target: T1, Nrd1 CID (S. cerevisiae, UniProt P53617 1-153); assay: fluorescence polarisation; fluorescence anisotropy; N-terminally FAM-labelled NIM peptides with purified Nrd1 CID versions; 10°C, 50 mM Na2HPO4, 100 mM NaCl, pH 8; 1:1 model with non-specific binding (DynaFit); conditions: both partners purified
T1 construct: The NMR sample was uniformly 15N,13C-labelled; also called wild-type Nrd1 CID; source: recombinant, purified as described previously (Kubicek et al, 2012)
T1 sequence (looked up): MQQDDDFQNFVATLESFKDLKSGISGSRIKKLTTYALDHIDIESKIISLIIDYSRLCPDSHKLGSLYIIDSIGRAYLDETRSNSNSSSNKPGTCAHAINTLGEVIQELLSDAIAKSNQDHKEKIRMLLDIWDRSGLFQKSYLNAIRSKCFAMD

Nrd1 CID S25D = molecular target: T2, Nrd1 CID S25D (S. cerevisiae, UniProt P53617 1-153, S25D); assay: as above; conditions: both partners purified
T2 construct: Nrd1 CID, S. cerevisiae; source: recombinant, purified as described previously (Kubicek et al, 2012)
T2 sequence (looked up): T1 sequence (looked up) with S25D

[4] = molecular target: Trf4 NIM peptide, FAM-labelled (S. cerevisiae); assay: as above
Nrd1 CID [5] = molecular target: T1, Nrd1 CID; assay: NMR titration; [1H,15N] HSQC of Nrd1 CID titrated with NIM peptide, chemical shift perturbations; 20°C, 50 mM Na2HPO4, 100 mM NaCl, pH 8; conditions: both partners purified

## Nrd1 CID S25D (from UniProt P53617 1-153) (domain or fragment)
[1]
  Kd: 76.1 µM
[2]
  Kd: 53.9 µM

B1: Sen1 NIM peptide, FAM-labelled (peptide, UniProt Q00416 2052-2063, looked up)
peptide: {FAM}-DDDEDDYTPSIS
notes: The text prints D2052-D2053-D2054-E2055-D2056-D2057, Y2058, T2059, P2060, S2061 and I2062; source: synthetic peptide
Nrd1 CID [3]
  Kd: 1200 ± 20 nM
Nrd1 CID S25D
  binding result: binds

B2: Nrd1 CID I130A (domain or fragment)
chain: T1 sequence (looked up) with I130A
[2]
  Kd: 4.5 µM

B3: Nrd1 CID (domain or fragment)
chain: T1 sequence (looked up)
[4]
  Kd: 900 nM

B4: Nrd1 CID M126A (domain or fragment)
chain: T1 sequence (looked up) with M126A
[2]
  Kd: 1.1 µM

B5: Nrd1 CID I130K (domain or fragment)
chain: T1 sequence (looked up) with I130K
[2]
  Kd: 14.1 µM

B6: Nrd1 CID K21D (domain or fragment)
chain: T1 sequence (looked up) with K21D
[2]
  Kd: 6.1 µM

B7: Nrd1 CID I130N (domain or fragment)
chain: T1 sequence (looked up) with I130N
[2]
  Kd: 6.1 µM

B8: Nrd1 CID R133G (domain or fragment)
chain: T1 sequence (looked up) with R133G
[2]
  Kd: 1.3 µM

B9: Nrd1 CID L20D (domain or fragment)
chain: T1 sequence (looked up) with L20D
[2]
  Kd: 13.4 µM

B10: Nrd1 CID R133D (domain or fragment)
chain: T1 sequence (looked up) with R133D
[2]
  Kd: 1.2 µM

B11: Nrd1 CID R28D (domain or fragment)
chain: T1 sequence (looked up) with R28D
[2]
  Kd: 63.4 µM

B12: Nrd1 CID R133A (domain or fragment)
chain: T1 sequence (looked up) with R133A
[2]
  Kd: 1.4 µM

B13: Sen1 NIM peptide (NMR) (peptide, UniProt Q00416 2052-2063, looked up)
peptide: DDDEDDYTPSIS
notes: The text prints D2052-D2053-D2054-E2055-D2056-D2057, Y2058, T2059, P2060, S2061 and I2062; it is surmised to be unlabelled; source: synthetic peptide
Nrd1 CID [5]
  binding result: binds
